Assay [1] concerns the target CaV1.2 (α1C) subunit expressed in Xenopus laevis oocytes by mRNA injection. Kind of assay: cell-based or functional assay.
The target of assay [2] is fluorescein-labeled AID peptide, fluorescein-…-COOH. Kind of assay: fluorescence polarization, β protein titrated onto 0.5 nM fluorescein-labeled AID peptide. For orientation: In fluorescence polarisation assays a small probe gives low polarisation when free and higher when bound to something large.
Assay [3] has the same target. Nature of the assay: fluorescence polarization, equilibrium isotherm titration.
Assay [4] shares this target. Nature of the assay: fluorescence polarization.
Assay [5] has as its target T1, full-length VDCC β2a mutant L392 changed to alanine (rabbit, UniProt P54288-2 1-606).
T1 construct: mature
Kind of assay: fluorescence polarization.

The target in assay [6] is T2, full-length VDCC β2a mutant M246 changed to alanine (rabbit, UniProt P54288-2 1-606).
T2 construct: mature
Nature of the assay: fluorescence polarization.

fluorescein = fluorescein label

As to “β2a domain I protein as injected into oocytes (P122R) (from UniProt P54288 25-146)”, in assay [1], the Current amplitude (A), I at 20 mV was -0.16; the Current amplitude (A), I at 30 mV is -0.18; the Steady-state activation, V1/2 (mV) was found to be 24 mV; the Steady-state activation, k (mV) worked out at 12.2 mV.

In assay [1], “β2a core protein as injected into oocytes (P122R) (from UniProt P54288 25-422)” had a Current amplitude (A), I at 20 mV of -0.87; a Current amplitude (A), I at 30 mV of -0.7; a Steady-state activation, V1/2 (mV) of 6.84 mV; a Steady-state activation, k (mV) of 8.43 mV.

As usually defined, the Kd is the free concentration of one partner at which half of the binding sites on the other are occupied at equilibrium, for simple one-to-one binding. The low end stands for higher affinity, the high end for lower affinity. For “VDCC β2a linkerless core (domain I plus domain II, removable linker core after TEV digestion) (from UniProt P54288 51-172; P54288 230-449)”, the values for the Kd in assay [2] and in assay [3] were 6.6 nM and 6 to 15 nM, respectively.

Consider “β3 subunit expressed in oocytes by mRNA injection”, for which, in assay [1], the Current amplitude (A), I at 20 mV is -0.56; the Current amplitude (A), I at 30 mV is -0.48; the Steady-state activation, V1/2 (mV) worked out at 10.7 mV; the Steady-state activation, k (mV) came out at 9.08 mV.

“full-length rat VDCC β3 subunit protein (recombinant, tag removed) (from UniProt P54287 1-484)”: in assay [1], the Steady-state activation, V1/2 (mV) stood at 10 mV and the Steady-state activation, k (mV) came to 10.6 mV.

As for “full-length β2a protein as injected into oocytes (P122R) (from UniProt P54288 1-606)”, in assay [1], the Current amplitude (A), I at 20 mV is -0.71; the Current amplitude (A), I at 30 mV is -0.49; the Steady-state activation, V1/2 (mV) is 3.68 mV; the Steady-state activation, k (mV) was 8.48 mV.

In assay [1], “β3 core protein (from UniProt P54287 21-370)” returned a Current amplitude (A), I at 20 mV of -0.45; a Current amplitude (A), I at 30 mV of -0.41; a Steady-state activation, V1/2 (mV) of 10.7 mV; a Steady-state activation, k (mV) of 10.1 mV.

For the molecule “full-length VDCC β2a subunit (rabbit, recombinant, histidine tag removed by TEV protease) (from UniProt P54288 44-632)”, the Kd in assay [2] was 16.1 nM; in assay [4], 26 nM; in assay [3] it was 6 to 15 nM.

In assay [1], “β2a domain I + domain II prepared by proteolysis of full length protein and subsequent purification (injected) (from UniProt P54288 25-146; P54288 204-423)” displayed a Current amplitude (A), I at 20 mV of -0.44; a Current amplitude (A), I at 30 mV of -0.34; a Steady-state activation, V1/2 (mV) of 3.24 mV; a Steady-state activation, k (mV) of 9.49 mV.

In the case of fluorescein-GGQQLEEDLRGYNSWITQGE-OH (also called labeled peptide; WT) [fluorescein-labeled AID peptide, fluorescein-GGQQLEEDLRGYNSWITQGE-COOH], the Kd in assay [5] is 340 nM; in assay [6], 1700 nM.
